Data reported in the supplement of paper PMC10065799, “High-throughput profiling of sequence recognition by tyrosine kinases and SH2 domains using bacterial peptide display” (eLife, 2023).

Legend:
[1] = test system: AncSZ; test: phosphorylation enrichment, bacterial display (enrichment ratio); higher = better substrate or ligand; peptides without Tyr show the background
[2] = target: FGFR3 (UniProt P22607); test: as above
[3] = test system: c-Abl (mouse); test: as above
[4] = test system: Fer (mouse); test: as above
[5] = target: Jak2 (UniProt O60674); test: as above
[6] = target: Hck (UniProt P08631); test: as above
[7] = target: FGFR1 (UniProt P11362); test: as above
[8] = target: Fyn (UniProt P06241); test: as above
[9] = target: EPHB2 (UniProt P29323); test: as above
[10] = target: EPHB1 (UniProt P54762); test: as above
[11] = target: Fes (UniProt P07332); test: as above
[12] = target: MERTK (UniProt Q12866); test: as above
[13] = test system: c-Src; test: as above
[14] = target: SHP2-C SH2; test: SH2 binding enrichment of the phosphorylated peptide, bacterial display (enrichment ratio); higher = better substrate or ligand; peptides without Tyr show the background
[15] = target: Grb2 SH2 (UniProt P62993); test: as above
[16] = target: c-Src SH2; test: as above
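For SH2 binding enrichment of the phosphorylated peptide, bacterial display in this document: peptide library displayed on the E. coli surface as eCPX fusions, selected cells deep-sequenced, score is each peptide's frequency after selection divided by its frequency in the input.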
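For phosphorylation enrichment, bacterial display in this document: 11-residue human phosphosite peptides and single-mutation variants displayed on the E. coli surface, counted by deep sequencing, each peptide's frequency after selection divided by its frequency in the unselected input library; frequency after pTyr selection over input frequency; kinase dosed for 20-30% of maximal phosphorylation in three min.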

Sequence of EPHB1 (P54762 whole entry, looked up): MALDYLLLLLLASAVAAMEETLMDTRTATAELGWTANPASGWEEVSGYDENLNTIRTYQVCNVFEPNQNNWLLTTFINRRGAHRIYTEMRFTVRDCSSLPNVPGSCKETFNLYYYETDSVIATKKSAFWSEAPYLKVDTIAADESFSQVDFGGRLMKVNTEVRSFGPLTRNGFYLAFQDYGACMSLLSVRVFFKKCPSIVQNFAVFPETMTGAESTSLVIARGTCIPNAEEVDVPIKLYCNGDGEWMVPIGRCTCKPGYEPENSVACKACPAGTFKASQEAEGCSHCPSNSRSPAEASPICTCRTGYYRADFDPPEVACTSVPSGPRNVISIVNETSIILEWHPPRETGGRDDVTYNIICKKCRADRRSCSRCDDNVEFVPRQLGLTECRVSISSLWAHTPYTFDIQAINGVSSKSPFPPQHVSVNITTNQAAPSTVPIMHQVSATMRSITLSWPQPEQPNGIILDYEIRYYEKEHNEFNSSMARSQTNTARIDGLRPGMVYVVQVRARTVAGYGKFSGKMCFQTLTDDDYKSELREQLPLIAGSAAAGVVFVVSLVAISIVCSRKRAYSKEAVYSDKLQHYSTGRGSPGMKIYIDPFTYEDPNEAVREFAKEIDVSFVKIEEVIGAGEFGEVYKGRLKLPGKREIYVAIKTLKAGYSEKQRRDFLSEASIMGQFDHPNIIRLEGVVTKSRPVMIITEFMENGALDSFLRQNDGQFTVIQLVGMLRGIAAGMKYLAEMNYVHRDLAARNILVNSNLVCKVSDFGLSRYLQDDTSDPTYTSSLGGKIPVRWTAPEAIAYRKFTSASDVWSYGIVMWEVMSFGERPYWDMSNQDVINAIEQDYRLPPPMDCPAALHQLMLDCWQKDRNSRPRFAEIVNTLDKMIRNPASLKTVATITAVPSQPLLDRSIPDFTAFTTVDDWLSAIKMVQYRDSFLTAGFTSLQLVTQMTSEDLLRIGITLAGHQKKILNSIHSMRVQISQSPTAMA
Sequence of EPHB2 (P29323 whole entry, looked up): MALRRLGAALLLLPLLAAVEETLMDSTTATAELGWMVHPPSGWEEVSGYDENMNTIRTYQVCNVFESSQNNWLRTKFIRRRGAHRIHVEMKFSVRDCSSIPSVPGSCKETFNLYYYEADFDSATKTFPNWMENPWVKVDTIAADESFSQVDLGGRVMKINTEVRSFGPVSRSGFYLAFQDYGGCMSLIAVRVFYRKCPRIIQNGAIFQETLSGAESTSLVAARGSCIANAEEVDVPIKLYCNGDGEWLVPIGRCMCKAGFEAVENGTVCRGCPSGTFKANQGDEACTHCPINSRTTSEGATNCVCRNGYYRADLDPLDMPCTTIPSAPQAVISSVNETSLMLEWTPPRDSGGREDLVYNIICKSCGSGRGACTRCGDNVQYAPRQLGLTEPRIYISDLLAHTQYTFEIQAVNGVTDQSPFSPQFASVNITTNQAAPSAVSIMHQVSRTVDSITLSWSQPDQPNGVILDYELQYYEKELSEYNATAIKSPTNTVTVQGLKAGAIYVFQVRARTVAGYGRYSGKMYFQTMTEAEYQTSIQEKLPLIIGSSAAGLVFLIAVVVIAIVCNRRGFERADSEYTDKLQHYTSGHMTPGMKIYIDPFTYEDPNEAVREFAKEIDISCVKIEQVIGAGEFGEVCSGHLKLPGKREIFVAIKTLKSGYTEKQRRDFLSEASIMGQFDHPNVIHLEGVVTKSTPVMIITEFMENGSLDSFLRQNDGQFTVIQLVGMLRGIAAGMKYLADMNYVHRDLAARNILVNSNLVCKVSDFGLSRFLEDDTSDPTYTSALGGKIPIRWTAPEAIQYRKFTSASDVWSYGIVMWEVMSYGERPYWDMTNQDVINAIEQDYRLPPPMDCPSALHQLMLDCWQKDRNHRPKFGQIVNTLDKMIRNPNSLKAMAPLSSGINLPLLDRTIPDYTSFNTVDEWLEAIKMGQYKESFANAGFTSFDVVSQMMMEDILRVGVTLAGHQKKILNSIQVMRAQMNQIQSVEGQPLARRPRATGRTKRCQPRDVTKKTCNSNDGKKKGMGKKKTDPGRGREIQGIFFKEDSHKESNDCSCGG
Sequence of Fyn (P06241 whole entry, looked up): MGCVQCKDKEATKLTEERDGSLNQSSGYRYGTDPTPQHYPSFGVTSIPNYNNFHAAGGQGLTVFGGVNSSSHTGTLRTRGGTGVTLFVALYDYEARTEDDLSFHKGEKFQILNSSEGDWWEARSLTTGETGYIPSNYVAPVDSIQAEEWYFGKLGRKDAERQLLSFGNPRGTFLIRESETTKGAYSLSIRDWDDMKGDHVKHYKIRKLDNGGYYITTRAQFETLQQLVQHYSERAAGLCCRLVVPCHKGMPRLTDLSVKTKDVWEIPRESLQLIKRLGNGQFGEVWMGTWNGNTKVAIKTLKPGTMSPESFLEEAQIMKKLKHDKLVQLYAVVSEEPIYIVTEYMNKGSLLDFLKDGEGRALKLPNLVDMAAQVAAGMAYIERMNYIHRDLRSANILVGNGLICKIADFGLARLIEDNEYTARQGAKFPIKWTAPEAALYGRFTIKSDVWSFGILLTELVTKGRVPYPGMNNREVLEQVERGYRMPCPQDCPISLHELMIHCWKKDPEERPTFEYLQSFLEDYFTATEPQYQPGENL
Sequence of FGFR1 (P11362 whole entry, looked up): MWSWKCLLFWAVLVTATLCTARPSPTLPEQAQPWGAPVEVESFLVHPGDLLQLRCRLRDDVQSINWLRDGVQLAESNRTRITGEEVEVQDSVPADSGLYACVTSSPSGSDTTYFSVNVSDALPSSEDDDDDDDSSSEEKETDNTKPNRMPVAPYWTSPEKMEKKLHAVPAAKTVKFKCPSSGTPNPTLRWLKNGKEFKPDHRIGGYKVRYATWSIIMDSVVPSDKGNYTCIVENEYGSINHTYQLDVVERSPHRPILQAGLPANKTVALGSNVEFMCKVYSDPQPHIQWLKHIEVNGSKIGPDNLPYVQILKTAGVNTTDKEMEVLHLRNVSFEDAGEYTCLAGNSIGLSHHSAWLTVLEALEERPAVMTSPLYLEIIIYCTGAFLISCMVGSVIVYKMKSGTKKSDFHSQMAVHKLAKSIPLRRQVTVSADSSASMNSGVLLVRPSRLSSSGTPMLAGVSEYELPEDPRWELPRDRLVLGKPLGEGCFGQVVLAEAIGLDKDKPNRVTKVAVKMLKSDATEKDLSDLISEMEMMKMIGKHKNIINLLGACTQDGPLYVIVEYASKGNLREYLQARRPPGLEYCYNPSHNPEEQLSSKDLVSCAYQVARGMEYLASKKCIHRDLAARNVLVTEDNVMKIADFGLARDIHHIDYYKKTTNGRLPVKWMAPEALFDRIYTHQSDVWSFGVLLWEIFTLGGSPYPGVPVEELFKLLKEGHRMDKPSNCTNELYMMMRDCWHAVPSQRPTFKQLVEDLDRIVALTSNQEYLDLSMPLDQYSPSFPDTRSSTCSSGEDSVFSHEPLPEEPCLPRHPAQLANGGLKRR
Sequence of FGFR3 (P22607 whole entry, looked up): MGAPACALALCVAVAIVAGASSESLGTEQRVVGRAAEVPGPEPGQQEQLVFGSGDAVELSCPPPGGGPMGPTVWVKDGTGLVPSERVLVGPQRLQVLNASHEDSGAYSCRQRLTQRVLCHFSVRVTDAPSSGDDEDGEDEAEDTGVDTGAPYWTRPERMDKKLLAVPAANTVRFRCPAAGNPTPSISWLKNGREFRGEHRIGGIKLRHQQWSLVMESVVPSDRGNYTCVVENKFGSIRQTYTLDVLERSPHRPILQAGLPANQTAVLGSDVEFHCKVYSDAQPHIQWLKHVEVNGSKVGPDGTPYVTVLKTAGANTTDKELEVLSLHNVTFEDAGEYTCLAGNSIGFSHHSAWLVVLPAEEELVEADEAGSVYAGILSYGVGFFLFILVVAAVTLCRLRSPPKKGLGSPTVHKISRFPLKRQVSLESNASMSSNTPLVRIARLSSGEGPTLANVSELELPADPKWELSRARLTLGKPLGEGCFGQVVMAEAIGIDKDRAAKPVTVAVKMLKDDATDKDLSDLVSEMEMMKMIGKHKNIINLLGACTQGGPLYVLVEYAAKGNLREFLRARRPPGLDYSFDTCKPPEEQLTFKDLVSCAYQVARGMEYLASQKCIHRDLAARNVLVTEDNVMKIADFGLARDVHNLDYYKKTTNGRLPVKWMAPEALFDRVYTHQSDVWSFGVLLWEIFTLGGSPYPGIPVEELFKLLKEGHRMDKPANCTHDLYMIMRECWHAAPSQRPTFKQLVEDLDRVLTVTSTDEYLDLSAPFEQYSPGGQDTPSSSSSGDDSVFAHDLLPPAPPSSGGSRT
Sequence of Hck (P08631 whole entry, looked up): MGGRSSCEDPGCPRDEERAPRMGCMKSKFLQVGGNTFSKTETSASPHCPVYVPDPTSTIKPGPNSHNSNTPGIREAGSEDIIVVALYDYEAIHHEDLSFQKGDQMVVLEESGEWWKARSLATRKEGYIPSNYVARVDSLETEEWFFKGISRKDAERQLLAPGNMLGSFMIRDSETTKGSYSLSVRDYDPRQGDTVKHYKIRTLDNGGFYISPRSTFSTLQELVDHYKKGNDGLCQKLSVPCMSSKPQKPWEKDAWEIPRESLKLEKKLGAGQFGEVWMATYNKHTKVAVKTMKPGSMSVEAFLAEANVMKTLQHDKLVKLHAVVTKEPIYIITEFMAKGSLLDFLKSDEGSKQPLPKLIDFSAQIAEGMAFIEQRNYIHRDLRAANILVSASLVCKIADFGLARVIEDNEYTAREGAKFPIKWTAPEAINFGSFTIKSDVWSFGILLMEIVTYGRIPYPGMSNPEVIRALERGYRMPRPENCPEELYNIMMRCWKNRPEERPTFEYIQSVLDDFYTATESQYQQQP

Sequence | SH2 binding enrichment [14] | SH2 binding enrichment [15] | SH2 binding enrichment [16] | phosphorylation enrichment [1] | phosphorylation enrichment [2] | phosphorylation enrichment [3] | phosphorylation enrichment [4] | phosphorylation enrichment [5] | phosphorylation enrichment [6] | phosphorylation enrichment [7] | phosphorylation enrichment [8] | phosphorylation enrichment [9] | phosphorylation enrichment [10] | phosphorylation enrichment [11] | phosphorylation enrichment [12] | phosphorylation enrichment [13]
GYSRHYEDGYP [CTNND1_Y217] | 0.676 | 0.818 | 1.46 | 0.691 | 0.529 | 0.67 | 0.374 | 0.623 | 0.383 | 0.391 | 0.382 | 0.465 | 0.383 | 0.722 | 0.524 | 0.488
HFPDVYAREQL [ALX3_Y181_YF] | 0.682 | 0.832 | 0.56 | 0.713 | 0.514 | 0.667 | 0.561 | 0.616 | 0.722 | 0.55 | 0.588 | 0.703 | 0.619 | 1.04 | 0.408 | 0.91
HFPFQYHRQLY [F12_Y53] | 2.15 | 1.27 | 1.28 | 1.03 | 0.865 | 0.508 | 0.725 | 0.723 | 0.656 | 0.449 | 0.59 | 0.572 | 0.583 | 1.28 | 0.566 | 0.471
HGAGHYEDTIL [ALK_Y1604_P1599H] | 0.791 | 0.775 | 2.81 | 1.26 | 0.978 | 0.958 | 4.64 | 1 | 0.724 | 0.787 | 0.734 | 0.652 | 0.829 | 1.17 | 0.682 | 0.752
HKANEYFPVVL [ADAMTS18_Y764_YF] | 0.53 | 0.963 | 0.462 | 0.872 | 4.38 | 0.628 | 0.736 | 1.83 | 0.533 | 8.42 | 0.807 | 1.5 | 0.951 | 0.896 | 0.528 | 0.556
HKLSYNEYDFE [BTK_Y40_Y40N] | 0.412 | 1.14 | 0.79 | 1.27 | 0.822 | 0.593 | 0.473 | 0.968 | 0.74 | 0.756 | 3.26 | 0.824 | 0.986 | 1.13 | 0.427 | 2.02
HNGDRYFKGIV [DCX_Y64_R59H] | 0.762 | 0.821 | 0.413 | 0.707 | 0.542 | 0.585 | 0.366 | 0.529 | 0.429 | 0.286 | 0.515 | 0.344 | 0.449 | 0.716 | 0.692 | 0.585
HNVPIYEGYAL [ACTA1_Y168] | 1.01 | 0.881 | 2.97 | 1.56 | 0.616 | 13.2 | 24.7 | 1.06 | 15.1 | 0.792 | 16.9 | 35.1 | 26 | 5.3 | 13.1 | 12.6
HQPGEYLFHAE [FLT3_Y416_I417L] | 1.19 | 0.742 | 0.514 | 1.09 | 0.691 | 1.21 | 0.554 | 1.29 | 0.756 | 0.628 | 0.481 | 0.724 | 0.527 | 1.13 | 0.617 | 0.879
HSDDDYDDPEL [CLNK_Y69] | 0.829 | 0.779 | 0.607 | 1.67 | 0.756 | 1.06 | 0.399 | 1.48 | 0.846 | 0.646 | 0.439 | 0.719 | 0.477 | 1.74 | 0.664 | 0.753
HYMELYDLNRD [BBS2_Y648_R643H] | 1.33 | 1.07 | 2.44 | 1.5 | 2.94 | 0.862 | 1.28 | 1.22 | 2.89 | 3.57 | 2.58 | 1.45 | 2.98 | 1.22 | 4.26 | 6.4
ICGVSYDEFRF [CFTR_Y512_F508C_YF] | 0.664 | 0.838 | 0.847 | 1.51 | 0.967 | 1.03 | 1.17 | 1.21 | 0.842 | 0.553 | 0.764 | 0.642 | 0.663 | 1.5 | 0.571 | 1.49
IEDPFYGNDFD [ACP1_Y133_S137F_YF] | 0.753 | 1.09 | 0.736 | 1.27 | 0.806 | 0.79 | 0.509 | 0.972 | 0.595 | 0.548 | 0.566 | 0.644 | 0.83 | 1.21 | 0.392 | 0.544
IEEGTYGVAFR [CDK11B_Y449_V452A_YF] | 0.51 | 0.612 | 0.374 | 1.32 | 0.915 | 0.982 | 4.45 | 0.859 | 6.06 | 0.465 | 7.47 | 2.24 | 0.888 | 1.11 | 1.6 | 5.45
IEKLTYIDEWF [CPS1_Y872_K875E] | 0.719 | 0.698 | 0.488 | 1.18 | 0.737 | 0.81 | 0.548 | 1.17 | 0.472 | 0.567 | 0.453 | 0.557 | 0.624 | 1.35 | 0.488 | 0.544
IFLENYNAGTY [CFI_Y421_H418L] | 0.777 | 0.937 | 0.668 | 0.846 | 0.897 | 0.665 | 0.558 | 0.786 | 0.543 | 0.481 | 0.415 | 0.443 | 0.656 | 1.04 | 0.403 | 0.687
IGEGTYGTVFK [CDK5_Y15] | 0.703 | 0.699 | 0.434 | 0.707 | 0.58 | 0.676 | 1.41 | 0.788 | 9.06 | 0.515 | 10.4 | 2.08 | 0.989 | 0.793 | 0.825 | 6.34

Continued, in another order:

SH2 binding enrichment [14] | SH2 binding enrichment [15] | SH2 binding enrichment [16] | Sequence | phosphorylation enrichment [1] | phosphorylation enrichment [2] | phosphorylation enrichment [3] | phosphorylation enrichment [4] | phosphorylation enrichment [5] | phosphorylation enrichment [6] | phosphorylation enrichment [7] | phosphorylation enrichment [8] | phosphorylation enrichment [9] | phosphorylation enrichment [10] | phosphorylation enrichment [11] | phosphorylation enrichment [12] | phosphorylation enrichment [13]
0.799 | 0.902 | 5.34 | HCYNSYTYPRL [PAK7_Y316_S312C] | 2.4 | 0.884 | 0.932 | 0.684 | 1.33 | 0.74 | 1.35 | 0.943 | 0.784 | 0.775 | 1.47 | 2.84 | 0.725
1.67 | 0.939 | 0.783 | HDKEYYSVHNK [MET_Y1235_Y1230H] | 1.24 | 1.88 | 0.706 | 0.865 | 0.75 | 0.911 | 2.8 | 0.739 | 0.472 | 0.714 | 0.729 | 0.503 | 0.506
2.16 | 0.95 | 1.32 | HDRGNYVRLNM [RECQL4_Y353] | 0.944 | 0.943 | 0.929 | 0.671 | 1.09 | 0.765 | 0.711 | 0.993 | 1.35 | 2.3 | 1.3 | 0.837 | 0.592
0.797 | 1.11 | 0.882 | HDRNTYEKFLG [TF_Y666_YF] | 1.17 | 0.751 | 0.99 | 0.378 | 1.29 | 1.44 | 0.484 | 2.42 | 0.951 | 0.525 | 1.33 | 0.936 | 2.82
0.553 | 0.692 | 0.483 | HFGCVYLGTLL [MET_Y1093_H1094L] | 2.29 | 1.67 | 1.39 | 0.923 | 2.07 | 1.01 | 0.925 | 0.897 | 1.1 | 1.02 | 2.24 | 0.597 | 4.61
1.01 | 0.913 | 0.635 | HILRVYGGVLP [PCNX4_Y999] | 1.07 | 1 | 0.874 | 0.532 | 0.765 | 1.01 | 0.755 | 0.699 | 0.676 | 0.591 | 1.12 | 0.444 | 0.588
0.392 | 0.905 | 0.697 | HLELNYKEDEF [MME_Y502_Y497H_YF] | 0.993 | 1.48 | 0.749 | 0.64 | 0.903 | 0.565 | 1.08 | 0.557 | 0.504 | 0.594 | 0.967 | 0.589 | 0.43
0.929 | 1.01 | 0.473 | HLTNQYMQRVA [PABPC4_Y382] | 0.525 | 0.33 | 1.04 | 0.446 | 0.406 | 0.324 | 0.402 | 0.356 | 0.316 | 0.307 | 0.429 | 0.277 | 0.351
0.616 | 1.29 | 0.829 | HNQDDYSYPSR [LDLR_Y845_G844D] | 5.73 | 0.79 | 0.776 | 0.567 | 0.751 | 0.651 | 0.82 | 0.664 | 2.52 | 1.2 | 0.856 | 0.653 | 0.597
0.707 | 1.07 | 6.74 | HNQDGYSYPSR [LDLR_Y845] | 1.25 | 0.886 | 0.823 | 0.738 | 0.831 | 0.618 | 0.614 | 0.836 | 0.584 | 0.55 | 0.826 | 0.913 | 0.661
0.675 | 0.737 | 0.394 | HSDFQYGQRSQ [PKP2_Y168_S169G_YF] | 0.641 | 0.639 | 0.509 | 0.78 | 0.727 | 0.587 | 0.495 | 0.766 | 0.628 | 0.632 | 1.25 | 0.511 | 0.682
0.49 | 0.661 | 0.421 | IDAVCYYRMEN [NPHS2_Y194_I192V] | 1.96 | 3.39 | 1.22 | 0.729 | 4.36 | 0.862 | 3.5 | 0.888 | 0.745 | 0.865 | 1.51 | 0.845 | 2.48
0.538 | 0.724 | 0.629 | IGHHAYGDQYR [IDH1_Y135_R132H] | 0.564 | 0.342 | 0.467 | 0.386 | 0.448 | 0.439 | 0.389 | 0.355 | 0.363 | 0.426 | 0.537 | 0.421 | 0.418
0.7 | 0.982 | 0.484 | IGNGFYFHVFS [MYBPC3_Y1136_R1138H_YF] | 1.06 | 0.757 | 1.04 | 0.449 | 1.28 | 0.423 | 0.472 | 0.4 | 0.643 | 0.639 | 1.31 | 0.419 | 0.381
0.737 | 0.831 | 0.755 | IINENYDFLKG [NUP98_Y1664_YF] | 0.82 | 0.631 | 0.57 | 0.466 | 0.761 | 1.19 | 0.518 | 0.426 | 0.726 | 0.677 | 0.903 | 0.602 | 0.495
0.752 | 0.896 | 0.739 | IIWDSYTTNEM [GNB4_Y85_K89E] | 1.48 | 0.903 | 0.829 | 0.705 | 1.39 | 0.54 | 0.678 | 0.747 | 0.795 | 0.787 | 1.43 | 0.411 | 0.57
